From patent US20210355204A1

What was measured:
Test in all cases: SPR competition: 4 nM TGFβ pre-mixed with TGFβ-RIIb-Fc, injected over immobilised XPA.42.089 (competitor)
TGFβ1 (human) = TGFβ1 (human) (UniProt P01137)
TGFβ2 (human) = TGFβ2 (human) (UniProt P61812)
TGFβ3 (human) = TGFβ3 (human) (UniProt P10600)

TGFβ-RIIb-Fc recombinant receptor (from UniProt P37173 23-184) (Fc fusion)
average RU of TGFβ binding (TGFβ1 (human)): -0.316 RU | average RU of TGFβ binding (TGFβ2 (human)): 38.2 RU | average RU of TGFβ binding (TGFβ3 (human)): -0.378 RU
